Source: the nanobody polyreactivity screen of Harvey et al. (2022)

Assay: yeast display, Sf9 membrane polyspecificity reagent, FACS + sequencing; frameworks hold sequencing errors
Procedure, shortened: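 A nanobody's polyreactivity label depends on the gate it was sorted from. Yeast display cells were stained with 10% biotinylated, detergent-solubilized Sf9 membrane reagent for 1 hour at 4 °C, enriched on streptavidin microbeads and sorted by FACS. The low and high (top ~1%) gates were set on anti-HA fluorescence for expression and streptavidin fluorescence for reagent binding.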

Sequence: QVQLVESGGGLVQAGGSLRLSCAASGIIFWAYAMGWYRQAPGKERELVAAISWSGGRTYYADSVKGRFTISRDNAKNTVYLQMNSLKPEDTAVYYCAAYRFLLYDYWGQGTQVTVSS
- polyreactivity (PSR sort gate): high polyreactivity

Sequence: HVQLVESGGGLVQAGGSLRLSCAASGSIFDYNAIGWYRQAPGKERELVASSSGDSGSTYYADSVKWRFTISRDYAKNTVYLQMNSLKPEDTAVYYCAAPYVSWDYRYYYWGQGTQVTVSS
- polyreactivity (PSR sort gate): low polyreactivity

Sequence: QVLIEDSGGGLVQAGGSLRLSCAASGSIFYFYAMGWYRQAPGKERELVAAISYSVGSTYYADSVKGRFTISRVNAKNTVYLQMNSLKPEDTAVDYCAADYYYGAWDGYGDEKYYYWGQGTQVTVSS
- polyreactivity (PSR sort gate): low polyreactivity

Sequence: QVQLVESGGGLVQAGGSLSLSCAASGYIFRYYAMGSYRQAPGKEREFGAAISWRGGSTYYADSVKGRFTISRDNAKNTVYLQMNRLKPEDTEFYYCAAGYFSFFGHYNAGLDYWGQGTQVTVSS
- polyreactivity (PSR sort gate): high polyreactivity

Sequence: QVQLVESGGGLVHAGGSLRLSCAASGRTFAGNVMGWYIQAPGKEREFVAAISLSGGNTYYADSVKGRFTISRDNAKNTVYLQMNSLKPEDTAVYYCAADYEYSGYGYWGQGTQVTVSS
- polyreactivity (PSR sort gate): high polyreactivity

Sequence: QVQLVESGGGLVQAGGSLRLSCAASGFNFRWYAMGWYRQAPGKESEFVAAITWRGGRTYYADSVKGRFTISRDNAKNTVYLQMNSLKPEDTAVYYCNAVYQYWHYSEGNYWGQGTQVTVSS
- polyreactivity (PSR sort gate): low polyreactivity

Sequence: QVQLVESGGGLVQAGGSLRLSCAASGIIFYDYAMGWYRQAPGKERELVAAITSSGGSTYYADSVKGRFTISRDNAKNTVYLQMNSLKPEDTAVYYCAAATRGSGRRYDYWGQGTQVTVSS
- polyreactivity (PSR sort gate): high polyreactivity

Sequence: QVQLVESGGGLVQAGGSLRLSCAASGSTLYDYAMGWYRQAPGKERELVAAINGSGGSTYYADSVKGRFTISRDNAKNTVYLQMNSLKPEDTAVYYCAAATTHRRRYGYWGQGTQVTVSS
- polyreactivity (PSR sort gate): low polyreactivity

Sequence: PVQLVESGGGLVQAGGSLRLSCAASGITIYYYGMGWYRQPPGKERELVAAITTGVNTNYADSVKGRFTISRDNAKITVYLQMNSLKPEDTAVYYCAAEYRIPYFFTYGYWGQGTQVTVSS
- polyreactivity (PSR sort gate): high polyreactivity

Sequence: QVQLVESGGGLVQAGGSLRLSCAASGFTFIYYAMGWYRQAPGKERELVAAISRRGGSTYYADSVKGRFTISRDNAKNTVYLQMNSLKPEDTAVYYCAADYTSAILRSDYWGQGTQVTVSS
- polyreactivity (PSR sort gate): high polyreactivity

Sequence: QVQLVESGGGLVQAGGSLRLSCAASGSIFDVYAMGWYRQAPGKERELVAAIDSGGSSTYYADSVKGRFTISRDNAKNTVYLQMNSLKPEDTAVYYCAARPYYSWNYDYWGQGTQVTVSS
- polyreactivity (PSR sort gate): low polyreactivity

Sequence: QVQLVESGGGLFKAGGSLRLSCAASGRTFRGYTMGWYRQAPGKERELVAAITSGTRTNYADSVKGRFTISRDNAKNTVYLQMNSLKPEYTAVYYGAARDYIRPRYRPYDYWGHGTQVTVSS
- polyreactivity (PSR sort gate): high polyreactivity

Sequence: QVQLVESGGGLVQAGGSLRLSCAASGSTFGHYAMGRYRQAPGKESELVSAISTSGGRTYYADSVKGRFTISRDNAKNTVYLQMNSLKPEDTAVYYCATRRYGVDKFDYWGQGTQVTVSS
- polyreactivity (PSR sort gate): high polyreactivity

Sequence: QVQLVESGGGLVQAGGSLRLSCAASGGTFPGYTMGWNRQAPGKERELVAAISGSGVSTYYADSVKGRFTISRDNAKNTVYLQMNSLKPEDTAVYYCARTYRSYSRYPFVRFDYWGQGTQVTVSS
- polyreactivity (PSR sort gate): high polyreactivity

Sequence: QVQLVESGGGLVQAGGSLRLSCAASGSIFSTNAMGWYRQAPWKERELVAGISSDDSTYADSVKGRFTISRDNAKNTVNLQMNSLKPEDTAVYNCAAEDNWYNVGYYYRGQGTQVTVSS
- polyreactivity (PSR sort gate): low polyreactivity

Sequence: QVQIVDSGRGLVQAGGSLRLSCAASGRTFIRYTMGWSRQATGKERELFAAITSGGITNYADSVKGRFTISRDNAKNPVYLQMNSLKPQDSALYYCAARHRWVTGSYGKYDYLGQGTQVTVSS
- polyreactivity (PSR sort gate): low polyreactivity

Sequence: QVQLVESGGGLVQAGGSLRLSCAASGRIIYGYAMGWYRQAPGKERELVAAISASGGRTYYADSVKGRFTISRDHAKNTVYLQMNSLKPEDTAVYYCAADDVGPPDFYYWGQGTQVTVSS
- polyreactivity (PSR sort gate): high polyreactivity

Sequence: QVQLVESGGGLVQAGGSLRLSCAASGRIFGKYVMGWYRQAPGKERELVAAIRSSGGSTYYADSVKGRFTISRDNAKNTVYLQLNSLKPEDTAVYYCAKRLHYSAPRYTENDYWGQGTQVTVSS
- polyreactivity (PSR sort gate): high polyreactivity

Sequence: QVQLVESGGGLVQAGGSLRLSCAASGIIFRLYAMGWYRQAPGKERELVAAISYRGGSTYYADSVKGRFTISRDNAKNTVYLQMNSLKPEDTAVYYCAGRNPRYSFYYWGQGTQVTVSS
- polyreactivity (PSR sort gate): high polyreactivity

Sequence: QVQLVESGGGLVQAGGSLRLSCAASGITFRRYAMGWYRQAPGKERELVASITSGGSTNYADSVKGRFTISRDNAKNTVYLQMNSLKPEDTAVYYCAADSRWGMDYWGQGTQVTVSS
- polyreactivity (PSR sort gate): high polyreactivity

Sequence: QVQLVESGGGLVQAGGSLRLSCAASGYTFPQYAMGWYRQAPGKERELVAAITRRGGSTYYADSVKGRFTISRDNAKNTVYLQMNSLKPEDSAVYNCAADSYPYSHGGDYWGQGTQVTVSS
- polyreactivity (PSR sort gate): high polyreactivity

Sequence: QVQLVESGGGLVQAGGSLRLSCAASGFTFSTYAMGWYRQAPGKERELVAAITRSGGSTYYADSVKGRFTISRDNAKNTVYLQMNSLKPEDTAVYYCATDASFYDPDLYPYGYDYWGQGTQVTVSS
- polyreactivity (PSR sort gate): high polyreactivity

Sequence: QVQQVESGGGLVQAGGSLRLSCAASGFIFFGYAMGWYRQARGKERELVAAITSGGSTYYADSVKGRFTISRDNAKNTVYLQMNSLKPEDTAVYYCAADNSGWWGTGYNYWGQGTQVTVSS
- polyreactivity (PSR sort gate): high polyreactivity

Sequence: QVQLVESGGGLVQAGGSIRLSCAASGRTAKRYAMGWYRQAPGKERELVAAISRGGGSTYYADSVKGRFTISRDNAKNTVYLQMNSLKPEDTAVYYCAADLNSYTRYDYWGQGTQVTVSS
- polyreactivity (PSR sort gate): high polyreactivity

Sequence: QVQLVESGGGLVQAGGSLRLSCAASGRIFDFYGMGWYTQAPGKERELVAAISRRSGSTYYADSVKGRFTISRDNAKNTDYLQMNSLKPEDTAVYYCAAEPSSYRYDYWGQGTQGTVSS
- polyreactivity (PSR sort gate): high polyreactivity

Sequence: QVQLVESGGGLVQAGGSLRLSCAASGRIFDVNVMGWYRQAPGKERELVADISSGGGTDYADSVKGRFTISRDNAKNTVYLQMNILKQEDTAVYSCDWGQGTQVTVSS
- polyreactivity (PSR sort gate): low polyreactivity

Sequence: QVQLVESGGGLVQAGGSLRLSCAASGRTFTYYSMGWYRQAPGKESELVARISIRGTNTYYADSLKGRFTISRDNAKNTVYLQMTSLKPEDTAVYYCAKYYYTSIVGYDSWGQGTQVTVSS
- polyreactivity (PSR sort gate): low polyreactivity

Sequence: QVQLVESGGGLVQAGGSLRLSCAASGIIFGYYAMGGYRQAPGKERELVAAISSRGSRTYYADSVKGRFTISRDNAKNTVYLQMNSLKPEDTAVYYCAARHFARMGYWGQGTQVTVSS
- polyreactivity (PSR sort gate): high polyreactivity

Sequence: QVQLVESGGGLVQAGGSLRLSCAASGFIFHRYAMGWYRQAPGKERELVAAITGRGSSTYYADSVKGRFTISRDNAKNTVYLQMNCLKPEDTGVYYCNAYRYQVYDTGWFGYWGQGTQVTVSS
- polyreactivity (PSR sort gate): high polyreactivity

Sequence: QVQLVESGGGLVQAGGSLRLSCAASGSTFYSYAMGWYRQAPGKEREFVAVISWSGGRTRYADSVKGRFTISRDNAKNTVYLQMNSLKPEDTAVYYCNARKWGYSPHRKGDRHFEYWGQGTQVTVSS
- polyreactivity (PSR sort gate): low polyreactivity

Sequence: QVQLVESGGGLVQAGGSLRLSCAASGIIFSYYAMGWYRPEHGKEREFVAVITTGGGSTSYADSVKGRFTISRDNAKNTVYLQMNSLKPEDTAVYYCTAGHLGLDGIQDGVDYWGQGTQVTVSS
- polyreactivity (PSR sort gate): low polyreactivity

Sequence: QVQLVESGGGLDQAGGSLRLSCAACGIIFYVYDMGGYRQAPGKERELVPISGSSTYYADSVKGRFTISRDNAKNSVYLQMNSLKPEDTAVYYWSADGVELYDYWGQGTQVTVSS
- polyreactivity (PSR sort gate): low polyreactivity

Sequence: QVQLVESGGGLVQAGGSLRLSCAPSGRTFYLNAMGWYRPAPGKERELVAAIRFSGGSTYYADSVKGRFTISRDNAKNTVYLQMNSLKPEDTAVYYCNAGPYLSLYPTVSEYGYWGQGTQVTVSS
- polyreactivity (PSR sort gate): low polyreactivity

Sequence: QVQLVESGGGLVQAGGSLRLSCAASGFIFQYYAMGWYRQAPGKERELVAAITPSGTSTYYADSVKGRFTISRDNAKNTVYLQMNSLKPEDTAVYYCAAYYRYASDYWGQGTQVTVSS
- polyreactivity (PSR sort gate): low polyreactivity

Sequence: QVQLVESGGGLVQAGGSLRLSSAASGSIFGYNAIGWYRQAPGKERELVAAISYSGGRTYYADSVKGRFTISRDNAKNTVYLQMNCLKAEDTAVYYCAKVLQYRTFYTGYDYWGQGTQVTVSS
- polyreactivity (PSR sort gate): high polyreactivity

Sequence: QDQLVESGGGLVQAGGSLRLSCAASGSTIRVKAMGWYRLAPGKERELVAGISKSGTSTYYADSVKGRFTISRDNAKNTVYLQMNSLKPEDTAAYYCATHLGRRTSGSRFGYWGQGTQVTVSS
- polyreactivity (PSR sort gate): high polyreactivity

Sequence: QVQLVESGGGLVQAGGSLRLSCAASGFTLANYAMGWYRQAPGKERELVAAISSSTGGTYYADSVKGRFTISRDNAKNTVYLQMNSLKPEDTAVYYCAAEYYFHKYVRMYYWGQGTQVTVSS
- polyreactivity (PSR sort gate): high polyreactivity

Sequence: QVQLVESGGGLVQAGGSLRLSCAASGIIFSIYALGWYRPAAGKERELVAAITYSGGRTYYADSVKGRFTISRDNAKNSVYLQMNSLKPEDTAVYYCAAVGYGEYYWGQGTQVTVSS
- polyreactivity (PSR sort gate): high polyreactivity

Sequence: QVQLVESGGGLVQAGGSLRISCAASGSIFGYYAMGWYRQAPGKERELVAAITRSGGSTYYADSVKGRFTISRDNAKNTVYLQMNSLKPEDTAVYYCAAYYGHLYYTFDYWGQGTQVTVSS
- polyreactivity (PSR sort gate): low polyreactivity

Sequence: QVQLGESGGGLVQAGGSLRLSCAASGRIFAGYAMGWYRQAPGKERELVATISSGGSTYYADSVKGRFTISRDNAKNTVYLQMHSLKPEDTAVYYCAAEYATRQYSSYYNLFNYCGQGTQVTVSS
- polyreactivity (PSR sort gate): low polyreactivity

Sequence: QVQLVESGGGLVQAGGSLRLSCAASGSIFTYKAKVRYRQAPGKERELVAAISASGGSTYYADSVKGRFTISRDNAKHTVYVQMNSLKPEDTALYYCNAYQTSTPLFPGYGYWGQGTQVTVSS
- polyreactivity (PSR sort gate): low polyreactivity

Sequence: QVQRVESGGGLVQAGGSLRLSSASSGFTFRSYAMGWYRQEPGKERELVAVIASSGGSTYYADSVKGRFTFSRDNAKNTVYLQMNSLKPEDTAVYYCNRRPATRAYLYDYWGQGTQVTVSW
- polyreactivity (PSR sort gate): high polyreactivity

Sequence: QVQLVESGGGLVQAGGSLRLSCAASGSIIDWNAMGWYRQAPGKERELVAVISWGGGSTYADSVKGRFTISRDNAKNTVYLQMNSLKPEDTAVYNCNKEPIYYPVSDYDYWGQGTQVTVSS
- polyreactivity (PSR sort gate): low polyreactivity
